Kd data for one molecule are collected here from article PMC3534135, “Interaction of the Transactivation Domain of B-Myb with the TAZ2 Domain of the Coactivator p300: Molecular Features and Properties of the Complex” (PLoS ONE, 2012).

The test addresses T1, B-Myb transactivation domain (residues 275-376) (mouse, UniProt P48972 275-376).
T1 construct: also called B-Myb TAD
T1 sequence (looked up): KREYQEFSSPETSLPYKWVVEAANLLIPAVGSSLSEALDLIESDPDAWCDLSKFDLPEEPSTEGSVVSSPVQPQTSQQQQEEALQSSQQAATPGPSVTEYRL
Briefly: NMR titration; 15N/1H HSQC of 15N-labelled p300 TAZ2 (100 µM) without and with 100 or 200 µM unlabelled B-Myb TAD; minimal shift approach; 25°C, 600 MHz; 20 mM Bis-Tris, 100 mM NaCl, 5 mM DTT, 20 µM ZnSO4, pH 5.8; Kd estimated from intermediate exchange. The note with it: both partners purified.

B1: TAZ2 domain of the coactivator p300 (domain or fragment, human, UniProt Q09472 1726-1812, looked up)
chain: SPGDSRRLSIQRCIQSLVHACQCRNANCSLPSCQKMKRVVQHTKGCKRKTNGGCPICKQLIALCCYHAKHCQENKCPVPFCLNIKQK
notes: human p300, TAZ2 domain, residues 1726-1812, corresponding to murine CBP TAZ2; cloned into the NdeI and BamHI sites of pET23a; No tag is stated; also called p300 TAZ2
Consider B1, for which the Kd is 1 to 10 µM.

Broadly, the Kd is the concentration at which binding is half-saturated.
